Test results as given in publication PMC9118981.

Tests used:
purified protein [1] = substrate: O=c1[nH]c(=O)[nH]c(=O)[nH]1; test: purified protein; assay type: biochemical, Bradyrhizobium diazoefficiens; settings: 50.0 °C
purified protein [2] = substrate: O=c1[nH]c(=O)[nH]c(=O)[nH]1; test: purified protein; assay type: biochemical, Pseudolabrys sp. Root1462; settings: 50.0 °C

Row | Protein | Km (purified protein [1]) [µM] | kcat (purified protein [1]) [s⁻¹] | Km (purified protein [2]) [µM] | kcat (purified protein [2]) [s⁻¹]
1 | CAH-BD (Bradyrhizobium diazoefficiens USDA 110) (protein, codon-optimised gene expressed in Bacillus subtilis, purified; no tag mentioned) MRTTSVGVFKIVTKGPGDVSGLMAMIGSGAIDPKSILAVLGKTEGNGGVNDFTREYAVAALCTALAPQLGLSPEEVEQRIAFVMSGGTEGVLSPHITVFTRREVERRPAGLSGKRLSIGMAHTRDFLPEELGRAAQIAETAAAVKAAMADAGIADPADVHFVQIKCPLLTSDRVEAASARGNKTATTSAYGSMAYSRGASALGVAVALGETGSDISDGDVLRRYDLFSKVASTSAGIELMHNVVIVLGNSAASASEFEIGHAVMNDAIDAAAVTSALKCVGLGVAPQAEAGRELVNIFAKAEASPDGSVRGFRHTMLEDTDISSTRHARAAVGGLIAGLAGTGAVYVSGGAEHQGPAGGGPVAVIARLSD | 103 ± 29 | 10.6 ± 1.9 |  | 
2 | CAH-PR (Pseudolabrys sp. Root1462) (protein, codon-optimised gene expressed in Bacillus subtilis, purified; no tag mentioned) MPIAKVHRISASSPNDVSGLEAAIASGRIDPKGVIAVLGKTEGNGLVNDFSRGLATTALTLLFERHLPQAEAAQICLVMSGGTEGGMAPHWIVFERGKGEGGRSPALAIGRAHTLQLPYEQLGRLGEVDQVAAGVRAAMEDAGIADPADVHFVQIKCPLLTAQRIAEAEARGAAVATRDTLKSMSLSRAASALGAAVALGEIDRAAITEAQIGSDWSLWSGRASTSAGIELVNHEIVVLGMSKDWSGPLAIDHAVMRDGIDIEPVRAALQRLGLGAAGQLDPAQRNKMVALLAKAEASHDGRLRGHRHTMLDDSDIASTRHARGFVCGALAGLVGHAEIYVSGGAEHQGPDGGGPVAVIVDRG |  |  | 115 ± 36 | 10.1 ± 2.7
